Reference: publication PMC6494084
Read-outs that look alike come from different tables or passages of the source.

How the values were obtained:
Test in all cases: X-ray crystallography
[1] = target: T1, DNA polymerase beta (pol β), wild-type (human, UniProt P06746 1-335)
[2] = target: T1, DNA polymerase beta (pol β), wild-type; remark: listed apart in the source
[3] = target: T1, DNA polymerase beta (pol β), wild-type; remark: listed apart in the source

B1: 1-nt gapped DNA, templating A (dsDNA)
DNA 1: CCGACAGCGCATCAGC
DNA 2: GCTGATGCGC
DNA 3: GTCGC
modifications: 5'-phosphate on downstream strand
binding result [1]: binds

B2: 1-nt gapped DNA, templating G (dsDNA)
DNA 1: CCGACGGCGCATCAGC
DNA 2: GCTGATGCGC
DNA 3: GTCGC
modifications: 5'-phosphate on downstream strand
binding result [2]: binds

B3: 1-nt gapped DNA, templating C (dsDNA)
DNA 1: CCGACCGCGCATCAGC
DNA 2: GCTGATGCGC
DNA 3: GTCGC
modifications: 5'-phosphate on downstream strand
binding result [3]: binds
